The results in this text go back to IntAct's records for PubMed 23183827.

The target of this test is syua_human SNCA (UniProt P37840).

As for “Leucine-rich repeat serine/threonine-protein kinase 2 (Homo sapiens), Q5S007 G2019S”, the “effect of a mutation on the interaction” value is on record as “increasing interaction”.
